Non-standard residues stand in square brackets, D forms with d. Arg(Me) = CNC(=N)NCCC[C@H](N)C(=O)O; Dap(CONH2) = NC(=O)NC[C@H](N)C(=O)O; Lys(Me2) = CN(C)CCCC[C@H](N)C(=O)O; hArg = N=C(N)NCCCC[C@H](N)C(=O)O; 4Pal = N[C@@H](Cc1ccncc1)C(=O)O; Cha = N[C@@H](CC1CCCCC1)C(=O)O; Cit = NC(=O)NCCC[C@H](N)C(=O)O; dIva = CC[C@@](C)(N)C(=O)O; Iva = CC[C@](C)(N)C(=O)O; Dab = NCC[C@H](N)C(=O)O; Aib = CC(C)(N)C(=O)O
Experiments:
human Y2 receptor [1] = target: T1, human Y2 receptor (Homo sapiens, UniProt P49146); experiment: Receptor Binding Assay (RBA) for Human Y2, [125I]-PYY displacement on hY2R/CHO membrane fraction; details: IC50 of test compound/IC50 of PYY(3-36) (PYY(3-36) taken as 1)
T1 construct: expressed in transfected cells; membrane fraction
T1 sequence (P49146 1-381): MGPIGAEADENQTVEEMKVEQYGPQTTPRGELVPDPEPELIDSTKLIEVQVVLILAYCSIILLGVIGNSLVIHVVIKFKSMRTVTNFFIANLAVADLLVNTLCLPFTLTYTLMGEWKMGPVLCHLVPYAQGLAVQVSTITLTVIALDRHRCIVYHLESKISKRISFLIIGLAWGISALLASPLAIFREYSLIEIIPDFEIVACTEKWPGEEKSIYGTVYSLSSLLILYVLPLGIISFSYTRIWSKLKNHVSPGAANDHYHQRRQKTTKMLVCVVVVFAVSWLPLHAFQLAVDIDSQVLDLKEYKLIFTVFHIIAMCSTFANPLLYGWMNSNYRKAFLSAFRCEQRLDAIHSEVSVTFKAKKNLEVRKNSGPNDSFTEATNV
How it was run: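 Read-out is [125I]-PYY displacement from membranes of CHO/dhfr− cells stably transfected with human Y2R. Membranes were obtained by disrupting cells in a buffer of 10 mM NaHCO3, 5 mM EDTA and protease inhibitors.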

human Y2 receptor [2] = target: T1, human Y2 receptor; experiment: Human Y2 Receptor G Protein Binding Assay (GBA), [35S]GTPγS; assay type: biochemical; details: EC50 of test compound/EC50 of PYY(3-36) (PYY3-36 taken as 1), hY2R/CHO membrane fraction
How it was run: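 Agonism measured as [35S]GTPγS binding, read by GF/C filtration and scintillation counting after 120 min at room temperature, using human Y2 membranes at 1 μg protein/mL in pH 7.4 Tris/MgCl2/NaCl/GDP buffer. Compound serially diluted 100 μM–1 nM; EC50 normalized to PYY(3-36) (ratio = compound/PYY).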

Ac-[D-Pro24, Ala(4Pip)25, Pya(4)26, Cha27,36, Aib28,31, Lys30]-PYY(23-36) [compound No. 311] (Ac-S[dP][Ala(4Pip)][4Pal][Cha][Aib]NK[Aib]TRQR[Cha]-NH2; also: Ala(4Pip) configuration not fixed (D or L), former peak)
RBA IC50 Ratio (human Y2 receptor [1]): 18 | GBA EC50 Ratio (human Y2 receptor [2]): 14

Ac-[D-Pro24, Alb26, Cha27,28,36, Aib31]-PYY(23-36) (Ac-S[dP]R[Dap(CONH2)][Cha][Cha]NL[Aib]TRQR[Cha]-NH2; SMILES CC(=O)N[C@@H](CO)C(=O)N1CCC[C@@H]1C(=O)N[C@@H](CCCNC(=N)N)C(=O)N[C@@H](CNC(N)=O)C(=O)N[C@@H](CC1CCCCC1)C(=O)N[C@@H](CC1CCCCC1)C(=O)N[C@@H](CC(N)=O)C(=O)N[C@@H](CC(C)C)C(=O)NC(C)(C)C(=O)N[C@H](C(=O)N[C@@H](CCCNC(=N)N)C(=O)N[C@@H](CCC(N)=O)C(=O)N[C@@H](CCCNC(=N)N)C(=O)N[C@@H](CC1CCCCC1)C(N)=O)[C@@H](C)O) [compound No. 149]
RBA IC50 Ratio (human Y2 receptor [1]): 12 | GBA EC50 Ratio (human Y2 receptor [2]): 2.2

Ac-[D-Pro24, Arg(Me)25, Cha27,36, Aib28,31, Lys30]-PYY(23-36) (Ac-S[dP][Arg(Me)]H[Cha][Aib]NK[Aib]TRQR[Cha]-NH2; SMILES CNC(=N)NCCC[C@H](NC(=O)[C@H]1CCCN1C(=O)[C@H](CO)NC(C)=O)C(=O)N[C@@H](Cc1c[nH]cn1)C(=O)N[C@@H](CC1CCCCC1)C(=O)NC(C)(C)C(=O)N[C@@H](CC(N)=O)C(=O)N[C@@H](CCCCN)C(=O)NC(C)(C)C(=O)N[C@H](C(=O)N[C@@H](CCCNC(=N)N)C(=O)N[C@@H](CCC(N)=O)C(=O)N[C@@H](CCCNC(=N)N)C(=O)N[C@@H](CC1CCCCC1)C(N)=O)[C@@H](C)O) [compound No. 281]
RBA IC50 Ratio (human Y2 receptor [1]): 1.8 | GBA EC50 Ratio (human Y2 receptor [2]): 1.8

Ac-[D-Pro24, Cha27,28,36, D-Iva29, Aib31]-PYY(23-36) (Ac-S[dP]RH[Cha][Cha][dIva]L[Aib]TRQR[Cha]-NH2; SMILES CC[C@@](C)(NC(=O)[C@H](CC1CCCCC1)NC(=O)[C@H](CC1CCCCC1)NC(=O)[C@H](Cc1c[nH]cn1)NC(=O)[C@H](CCCNC(=N)N)NC(=O)[C@H]1CCCN1C(=O)[C@H](CO)NC(C)=O)C(=O)N[C@@H](CC(C)C)C(=O)NC(C)(C)C(=O)N[C@H](C(=O)N[C@@H](CCCNC(=N)N)C(=O)N[C@@H](CCC(N)=O)C(=O)N[C@@H](CCCNC(=N)N)C(=O)N[C@@H](CC1CCCCC1)C(N)=O)[C@@H](C)O) [compound No. 179]
RBA IC50 Ratio (human Y2 receptor [1]): 71 | GBA EC50 Ratio (human Y2 receptor [2]): 37

Ac-[D-Pro24, Cha27,28,36, Dab30, Aib31]-PYY(23-36) (Ac-S[dP]RH[Cha][Cha]N[Dab][Aib]TRQR[Cha]-NH2; SMILES CC(=O)N[C@@H](CO)C(=O)N1CCC[C@@H]1C(=O)N[C@@H](CCCNC(=N)N)C(=O)N[C@@H](Cc1c[nH]cn1)C(=O)N[C@@H](CC1CCCCC1)C(=O)N[C@@H](CC1CCCCC1)C(=O)N[C@@H](CC(N)=O)C(=O)N[C@@H](CCN)C(=O)NC(C)(C)C(=O)N[C@H](C(=O)N[C@@H](CCCNC(=N)N)C(=O)N[C@@H](CCC(N)=O)C(=O)N[C@@H](CCCNC(=N)N)C(=O)N[C@@H](CC1CCCCC1)C(N)=O)[C@@H](C)O) [compound No. 165]
RBA IC50 Ratio (human Y2 receptor [1]): 2.6 | GBA EC50 Ratio (human Y2 receptor [2]): 1.6

Ac-[D-Pro24, Cha27,28,36, Iva30, Aib31]-PYY(23-36) (Ac-S[dP]RH[Cha][Cha]N[Iva][Aib]TRQR[Cha]-NH2; SMILES CC[C@](C)(NC(=O)[C@H](CC(N)=O)NC(=O)[C@H](CC1CCCCC1)NC(=O)[C@H](CC1CCCCC1)NC(=O)[C@H](Cc1c[nH]cn1)NC(=O)[C@H](CCCNC(=N)N)NC(=O)[C@H]1CCCN1C(=O)[C@H](CO)NC(C)=O)C(=O)NC(C)(C)C(=O)N[C@H](C(=O)N[C@@H](CCCNC(=N)N)C(=O)N[C@@H](CCC(N)=O)C(=O)N[C@@H](CCCNC(=N)N)C(=O)N[C@@H](CC1CCCCC1)C(N)=O)[C@@H](C)O) [compound No. 202]
RBA IC50 Ratio (human Y2 receptor [1]): 43 | GBA EC50 Ratio (human Y2 receptor [2]): 20

Ac-[D-Pro24, Cha27,28,36, Lys(Me2)30, Aib31]-PYY(23-36) (Ac-S[dP]RH[Cha][Cha]N[Lys(Me2)][Aib]TRQR[Cha]-NH2; SMILES CC(=O)N[C@@H](CO)C(=O)N1CCC[C@@H]1C(=O)N[C@@H](CCCNC(=N)N)C(=O)N[C@@H](Cc1c[nH]cn1)C(=O)N[C@@H](CC1CCCCC1)C(=O)N[C@@H](CC1CCCCC1)C(=O)N[C@@H](CC(N)=O)C(=O)N[C@@H](CCCCN(C)C)C(=O)NC(C)(C)C(=O)N[C@H](C(=O)N[C@@H](CCCNC(=N)N)C(=O)N[C@@H](CCC(N)=O)C(=O)N[C@@H](CCCNC(=N)N)C(=O)N[C@@H](CC1CCCCC1)C(N)=O)[C@@H](C)O) [compound No. 166]
RBA IC50 Ratio (human Y2 receptor [1]): 0.8 | GBA EC50 Ratio (human Y2 receptor [2]): 0.7

Ac-[D-Pro24, Cit25, Cha27,36, Aib28,31, Lys30]-PYY(23-36) (Ac-S[dP][Cit]H[Cha][Aib]NK[Aib]TRQR[Cha]-NH2; SMILES CC(=O)N[C@@H](CO)C(=O)N1CCC[C@@H]1C(=O)N[C@@H](CCCNC(N)=O)C(=O)N[C@@H](Cc1c[nH]cn1)C(=O)N[C@@H](CC1CCCCC1)C(=O)NC(C)(C)C(=O)N[C@@H](CC(N)=O)C(=O)N[C@@H](CCCCN)C(=O)NC(C)(C)C(=O)N[C@H](C(=O)N[C@@H](CCCNC(=N)N)C(=O)N[C@@H](CCC(N)=O)C(=O)N[C@@H](CCCNC(=N)N)C(=O)N[C@@H](CC1CCCCC1)C(N)=O)[C@@H](C)O) [compound No. 226]
RBA IC50 Ratio (human Y2 receptor [1]): 6.2 | GBA EC50 Ratio (human Y2 receptor [2]): 4.6

Ac-[D-Pro24, Cit25, Pya(4)26, Cha27,36, Aib28,31, Lys30]-PYY(23-36) [compound No. 225]
RBA IC50 Ratio (human Y2 receptor [1]): 2.8 | GBA EC50 Ratio (human Y2 receptor [2]): 2.2

Ac-[D-Pro24, Cit26, Cha27,28,36, Aib31]-PYY(23-36) (Ac-S[dP]R[Cit][Cha][Cha]NL[Aib]TRQR[Cha]-NH2; SMILES CC(=O)N[C@@H](CO)C(=O)N1CCC[C@@H]1C(=O)N[C@@H](CCCNC(=N)N)C(=O)N[C@@H](CCCNC(N)=O)C(=O)N[C@@H](CC1CCCCC1)C(=O)N[C@@H](CC1CCCCC1)C(=O)N[C@@H](CC(N)=O)C(=O)N[C@@H](CC(C)C)C(=O)NC(C)(C)C(=O)N[C@H](C(=O)N[C@@H](CCCNC(=N)N)C(=O)N[C@@H](CCC(N)=O)C(=O)N[C@@H](CCCNC(=N)N)C(=O)N[C@@H](CC1CCCCC1)C(N)=O)[C@@H](C)O) [compound No. 152]
RBA IC50 Ratio (human Y2 receptor [1]): 5.5 | GBA EC50 Ratio (human Y2 receptor [2]): 1.7

Ac-[D-Pro24, D-Iva25, Cha27,28,36, Aib31]-PYY(23-36) (Ac-S[dP][dIva]H[Cha][Cha]NL[Aib]TRQR[Cha]-NH2; SMILES CC[C@@](C)(NC(=O)[C@H]1CCCN1C(=O)[C@H](CO)NC(C)=O)C(=O)N[C@@H](Cc1c[nH]cn1)C(=O)N[C@@H](CC1CCCCC1)C(=O)N[C@@H](CC1CCCCC1)C(=O)N[C@@H](CC(N)=O)C(=O)N[C@@H](CC(C)C)C(=O)NC(C)(C)C(=O)N[C@H](C(=O)N[C@@H](CCCNC(=N)N)C(=O)N[C@@H](CCC(N)=O)C(=O)N[C@@H](CCCNC(=N)N)C(=O)N[C@@H](CC1CCCCC1)C(N)=O)[C@@H](C)O) [compound No. 182]
RBA IC50 Ratio (human Y2 receptor [1]): 14 | GBA EC50 Ratio (human Y2 receptor [2]): 11

Ac-[D-Pro24, D-Iva26, Cha27,28,36, Aib31]-PYY(23-36) (Ac-S[dP]R[dIva][Cha][Cha]NL[Aib]TRQR[Cha]-NH2; SMILES CC[C@@](C)(NC(=O)[C@H](CCCNC(=N)N)NC(=O)[C@H]1CCCN1C(=O)[C@H](CO)NC(C)=O)C(=O)N[C@@H](CC1CCCCC1)C(=O)N[C@@H](CC1CCCCC1)C(=O)N[C@@H](CC(N)=O)C(=O)N[C@@H](CC(C)C)C(=O)NC(C)(C)C(=O)N[C@H](C(=O)N[C@@H](CCCNC(=N)N)C(=O)N[C@@H](CCC(N)=O)C(=O)N[C@@H](CCCNC(=N)N)C(=O)N[C@@H](CC1CCCCC1)C(N)=O)[C@@H](C)O) [compound No. 181]
RBA IC50 Ratio (human Y2 receptor [1]): 19 | GBA EC50 Ratio (human Y2 receptor [2]): 13

Ac-[D-Pro24, Har25, Cha27,36, Aib28,31, Lys30]-PYY(23-36) (Ac-S[dP][hArg]H[Cha][Aib]NK[Aib]TRQR[Cha]-NH2; SMILES CC(=O)N[C@@H](CO)C(=O)N1CCC[C@@H]1C(=O)N[C@@H](CCCCNC(=N)N)C(=O)N[C@@H](Cc1c[nH]cn1)C(=O)N[C@@H](CC1CCCCC1)C(=O)NC(C)(C)C(=O)N[C@@H](CC(N)=O)C(=O)N[C@@H](CCCCN)C(=O)NC(C)(C)C(=O)N[C@H](C(=O)N[C@@H](CCCNC(=N)N)C(=O)N[C@@H](CCC(N)=O)C(=O)N[C@@H](CCCNC(=N)N)C(=O)N[C@@H](CC1CCCCC1)C(N)=O)[C@@H](C)O) [compound No. 291]
RBA IC50 Ratio (human Y2 receptor [1]): 1.2 | GBA EC50 Ratio (human Y2 receptor [2]): 2.7

Ac-[D-Pro24, Har25, Pya(4)26, Cha27,36, Aib28,31, Lys30]-PYY(23-36) [compound No. 289]
RBA IC50 Ratio (human Y2 receptor [1]): 0.82 | GBA EC50 Ratio (human Y2 receptor [2]): 1.4
